Data taken from paper PMC10041110.

Target: Chikungunya virus nonstructural protein 1 (nsP1) capping pore (Chikungunya virus)
Assay: cryo-EM structure

Chikungunya virus nonstructural protein 1 (nsP1) capping pore (enzyme)
stoichiometry N: 12
